According to article PMC4104026:

Molecular target: Hfq (His6-tagged) (UniProt P0A6X3 1-102)
Assay: EMSA; affinity comparable to GcvB; tRNA competitor; Single-RNA EMSA: 10 mM Tris-HCl pH 7.4, 0.1 mM EDTA, 10 mM NH4Cl, 10 mM NaCl, 10 mM KCl, 1 mg/ml tRNA, 4% glycerol, RT 5 min; ~40 fmol RNA (legend); Methods say
Conditions: protein: recombinant; tags: His6; chain copies: 6; label: 32P; 3' terminator hairpin

Chain of Hfq (His6-tagged) (P0A6X3 whole entry): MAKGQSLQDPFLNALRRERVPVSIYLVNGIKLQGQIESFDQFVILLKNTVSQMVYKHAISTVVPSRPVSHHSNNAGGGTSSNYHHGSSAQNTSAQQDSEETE

B1: AgvB (EcOnc01) sRNA (structured_RNA)
RNA: CGAUAACACAACAAUAUCAGUAUCUCAUGCUAUUGCCCGAACCCAUUCGGGCAUUUUU
binding result: binds
